Measured values reported in US20220411531A1 (SUMGEN MAB BEIJING BIOTECH, published 2022).

T1: AXL-His (Sino Biological Inc., 6x His labels, molecular weight 47.5 Kda) (UniProt P30530-2 26-440, limits assumed)
T1 construct: Bought reagent; also called target antigen AXL-His; target antigen AXL; not shown: 6x His tag
T1 sequence (looked up): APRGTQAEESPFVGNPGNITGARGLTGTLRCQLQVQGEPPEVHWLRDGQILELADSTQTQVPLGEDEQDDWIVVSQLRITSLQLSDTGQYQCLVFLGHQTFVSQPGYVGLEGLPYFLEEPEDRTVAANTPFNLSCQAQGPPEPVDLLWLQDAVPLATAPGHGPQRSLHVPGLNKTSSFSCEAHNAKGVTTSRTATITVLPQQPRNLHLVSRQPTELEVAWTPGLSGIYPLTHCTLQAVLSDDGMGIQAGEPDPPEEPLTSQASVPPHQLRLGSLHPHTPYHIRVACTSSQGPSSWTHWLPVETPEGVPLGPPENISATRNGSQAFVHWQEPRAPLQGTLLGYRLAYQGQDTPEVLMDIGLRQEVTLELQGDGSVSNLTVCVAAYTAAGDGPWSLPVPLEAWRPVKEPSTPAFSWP

T2: MER-His (ACRO Biosystems) (UniProt Q12866 21-499, limits assumed)
T2 construct: Bought reagent; not shown: His tag
T2 sequence (looked up): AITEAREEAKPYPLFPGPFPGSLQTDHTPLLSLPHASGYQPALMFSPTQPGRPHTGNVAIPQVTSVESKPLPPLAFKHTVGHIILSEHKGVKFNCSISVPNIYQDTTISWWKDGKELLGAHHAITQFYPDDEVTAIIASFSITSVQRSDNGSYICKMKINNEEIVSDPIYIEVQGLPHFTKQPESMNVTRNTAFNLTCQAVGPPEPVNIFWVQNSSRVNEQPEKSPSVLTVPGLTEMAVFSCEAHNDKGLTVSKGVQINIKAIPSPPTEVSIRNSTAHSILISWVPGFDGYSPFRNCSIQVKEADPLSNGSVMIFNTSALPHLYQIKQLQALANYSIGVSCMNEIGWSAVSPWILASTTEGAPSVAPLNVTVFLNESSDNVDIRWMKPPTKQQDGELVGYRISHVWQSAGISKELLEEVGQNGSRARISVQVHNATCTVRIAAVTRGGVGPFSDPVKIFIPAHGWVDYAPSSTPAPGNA


Tests used:
[1] = molecular target: T1, AXL-His (Sino Biological Inc., 6x His …); experiment: ELISA, AXL-His coated at 1 µg/ml, anti-human IgG Fab-HRP, OD450
Procedure: (§1) TYRO3-Fc (ACRO Biosystems), MER-His (ACRO Biosystems), and AXL-His (Sino Biological Inc.) each were coated at 1 μg/ml on an ELISA strip, which was held at 4° C. overnight. After the ELISA strips were washed with PBST, 10% fetal bovine serum was added to the ELISA strip, which was blocked for 1 hour at 37° C. Antibodies […], 6G12M21, 6G12M31 and 6G12M41 were added to react at 37° C. for 1 hour. After the ELISA strips were washed with PBST, horseradish peroxidase-labeled goat anti-human IgG Fab secondary antibodies (Goat Anti-Human IgG (Fab′)₂ (HRP), Abcam) were added to react for 30 minutes at 37° C. The ELISA strips were washed 5 times with PBST, and patted and dried on absorbent paper to remove residual droplets as much as possible. 100 μl of TMB (eBioscience, #85-00-420) was added to each well, and the ELISA strips were held for 1.5 min at room temperature (20±5° C.) in the dark. 100 μl of 2N H₂SO₄ stop solution was added to each well to terminate substrate reaction. The OD value was read at 450 nm by a microplate reader to analyze the binding ability of antibodies to the proteins.

[2] = molecular target: T2, MER-His (ACRO Biosystems); experiment: ELISA, MER-His coated at 1 µg/ml, anti-human IgG Fab-HRP, OD450
Procedure: AXL, TRYO3, and MER are all members of the TYRO3 receptor tyrosine kinase subfamily. To verify the recognition specificity of the antibodies 6G12M11, 6G12M21, 6G12M31 and 6G12M41, the binding ability of these antibodies to other members of the AXL family is tested by the ELISA method.
as §1

[3] = molecular target: T1, AXL-His (Sino Biological Inc., 6x His …); experiment: SPR (Biacore T-200), antibody captured on chip, AXL-His as analyte
Procedure: In this test, the affinity of AXL-His to each of the antibodies 6G12M11, 6G12M21, 6G12M31, and 6G12M41 was detected by the surface plasmon resonance technology. The test instrument used was BIACOR biomacromolecule interaction instrument (GE Healthcare, T-200). The antibodies 6G12M11, 6G12M21, 6G12M31, and 6G12M41 were immobilized on the surface of a chip by an antibody capturing method, and with all the concentrations set to 0.5 μg/mL, were injected for 60 seconds at a flow rate of 10 μL/min. The prepared AXL-His (Sino Biological Inc., 6× His labels, molecular weight: 47.5 Kda) as a mobile phase was let to flow through the surface of the chip under 5 concentration gradients (8, 4, 2, 1, 0.5 μg/mL) respectively for interaction determination. The AXL-His underwent association for 120 s and dissociation for 1800 s at the flow rate of 30 μL/min.

EC50 (read off the curve) [1] | binding result [2] | Kd [3] | koff [3] | kon [3] | Binder
~0.03 µg/mL | no binding (tested: about 1 µg/mL) | 10.2 nM | 0.00114 s⁻¹ | 112000 M⁻¹ s⁻¹ | antibody 6G12M21 (antibody, human IgG1, kappa, V domains shown) VH: QVQLVQSGPGLVKPSQSLSLTCSVTGFSISSGYYWNWIRQFPGQKLEWMGYRSYDGSNNYNPSLKNRISITRDTSKNQFFLKLNSVTSEDTATYYCARGWLLHYTMDYWGQGTTVTVSS VL: DIVMTQSPSSVSVTLGQSASISCRSSRSLLHSNGFTYLYWYLQKPGQSPQLLIYQMSNLASGVPDRFSGSGSGTDFTLKISRVEAEDVGVYYCGQNLELPLTFGGGTKLEIKR
~0.03 µg/mL | no binding (tested: about 1 µg/mL) | 28.7 nM | 0.00119 s⁻¹ | 41500 M⁻¹ s⁻¹ | antibody 6G12M41 (antibody, V domains shown) VH: QVQLVQSGPGLVKPSQSLSLTCSVTGFSISSGYYWNWIRQFPGQKLEWMGYRSYDGSNNYGPSLKNRISITRDTSKNQFFLKLNSVTSEDTATYYCARGWLLHYTMDYWGQGTTVTVSS VL: DIVMTQSPSSVSVTLGQSASISCRSSRSLLHSNGFTYLYWYLQKPGQSPQLLIYQMSNLASGVPDRFSGSGSGTDFTLKISRVEAEDVGVYYCGQNLELPLTFGGGTKLEIK

Continued, binder first:

Binder | EC50 (read off the curve) [1] | binding result [2] | Kd [3] | koff [3] | kon [3]
antibody 6G12M31 (antibody, V domains shown) VH: QVQLVQSGPGLVKPSQSLSLTCSVTGFSISSGYYWNWIRQFPGQKLEWMGYRSYDGSNNYDPSLKNRISITRDTSKNQFFLKLNSVTSEDTATYYCARGWLLHYTMDYWGQGTTVTVSS VL: DIVMTQSPSSVSVTLGQSASISCRSSRSLLHSNGFTYLYWYLQKPGQSPQLLIYQMSNLASGVPDRFSGSGSGTDFTLKISRVEAEDVGVYYCGQNLELPLTFGGGTKLEIK | ~0.03 µg/mL | no binding (tested: about 1 µg/mL) | 29.2 nM | 0.00116 s⁻¹ | 39700 M⁻¹ s⁻¹
antibody 6G12M11 (antibody, human IgG1, kappa, V domains shown) VH: QVQLVQSGPGLVKPSQSLSLTCAVTGFSISSGYYWNWIRQFPGQKLEWMGYRSYDGSNNYNPSLKNRISITRDTSKNQFFLKLNSVTSEDTATYYCARGWLLHYTMDYWGQGTTVTVSS VL: EIVMTQSPSSVSVTLGQSASISCRSSRSLLHSNGFTYLYWYLQKPGQSPQLLIYQMSNLASGVPDRFSGSGSGTDFTLKISRVEAEDVGVYYCGQNLELPLTFGGGTKLEIKR | ~0.03 µg/mL | no binding (tested: about 1 µg/mL) | 11.7 nM | 0.00114 s⁻¹ | 97400 M⁻¹ s⁻¹
